According to the Human Domainome abundance scans (Beltran et al. 2025):
± gives the uncertainty stated by the source.

experiment: abundance fitness (aPCA) (normalised: wild type 0, dead -1); higher = more abundant; growth selection in yeast, the domain comes from the species named; conditions: Homo sapiens

Substance | abundance fitness
Lipoamide acyltransferase component of branched-chain alpha-keto acid dehydrogenase complex, mitochondrial I186G, P11182 | -0.748 ± 0.042
Lipoamide acyltransferase component of branched-chain alpha-keto acid dehydrogenase complex, mitochondrial T174I, P11182 | -0.601 ± 0.11
Lipoamide acyltransferase component of branched-chain alpha-keto acid dehydrogenase complex, mitochondrial N185D, P11182 | -0.178 ± 0.092
Lipoamide acyltransferase component of branched-chain alpha-keto acid dehydrogenase complex, mitochondrial G195A, P11182 | -0.464 ± 0.044
Lipoamide acyltransferase component of branched-chain alpha-keto acid dehydrogenase complex, mitochondrial N184L, P11182 | -0.325 ± 0.11
Lipoamide acyltransferase component of branched-chain alpha-keto acid dehydrogenase complex, mitochondrial T213Q, P11182 | 0.005 ± 0.047
Lipoamide acyltransferase component of branched-chain alpha-keto acid dehydrogenase complex, mitochondrial L188M, P11182 | -0.248 ± 0.054
Lipoamide acyltransferase component of branched-chain alpha-keto acid dehydrogenase complex, mitochondrial R179Q, P11182 | 0 ± 0.051
Lipoamide acyltransferase component of branched-chain alpha-keto acid dehydrogenase complex, mitochondrial E210F, P11182 | -0.24 ± 0.066
Lipoamide acyltransferase component of branched-chain alpha-keto acid dehydrogenase complex, mitochondrial E190I, P11182 | -0.609 ± 0.08
Lipoamide acyltransferase component of branched-chain alpha-keto acid dehydrogenase complex, mitochondrial K211H, P11182 | -0.041 ± 0.052
Lipoamide acyltransferase component of branched-chain alpha-keto acid dehydrogenase complex, mitochondrial T174D, P11182 | 0.003 ± 0.058
Lipoamide acyltransferase component of branched-chain alpha-keto acid dehydrogenase complex, mitochondrial L206F, P11182 | -0.353 ± 0.36
Nanos homolog 2 Y113H, P60321 | 0.057 ± 0.11
Lipoamide acyltransferase component of branched-chain alpha-keto acid dehydrogenase complex, mitochondrial K187R, P11182 | -0.04 ± 0.039
Lipoamide acyltransferase component of branched-chain alpha-keto acid dehydrogenase complex, mitochondrial N185M, P11182 | -0.273 ± 0.18
Lipoamide acyltransferase component of branched-chain alpha-keto acid dehydrogenase complex, mitochondrial Y208A, P11182 | 0.018 ± 0.036
Lipoamide acyltransferase component of branched-chain alpha-keto acid dehydrogenase complex, mitochondrial V191E, P11182 | -0.562 ± 0.043

Substance | abundance fitness
Lipoamide acyltransferase component of branched-chain alpha-keto acid dehydrogenase complex, mitochondrial L201F, P11182 | -0.319 ± 0.09
Lipoamide acyltransferase component of branched-chain alpha-keto acid dehydrogenase complex, mitochondrial R199A, P11182 | 0.016 ± 0.045
Lipoamide acyltransferase component of branched-chain alpha-keto acid dehydrogenase complex, mitochondrial G193M, P11182 | -0.694 ± 0.073
Lipoamide acyltransferase component of branched-chain alpha-keto acid dehydrogenase complex, mitochondrial G195N, P11182 | -0.611 ± 0.12
Lipoamide acyltransferase component of branched-chain alpha-keto acid dehydrogenase complex, mitochondrial E203R, P11182 | 0.024 ± 0.037
Lipoamide acyltransferase component of branched-chain alpha-keto acid dehydrogenase complex, mitochondrial L172H, P11182 | -0.052 ± 0.091
Lipoamide acyltransferase component of branched-chain alpha-keto acid dehydrogenase complex, mitochondrial E203M, P11182 | -0.127 ± 0.06
Lipoamide acyltransferase component of branched-chain alpha-keto acid dehydrogenase complex, mitochondrial I200V, P11182 | -0.021 ± 0.039
Lipoamide acyltransferase component of branched-chain alpha-keto acid dehydrogenase complex, mitochondrial K187E, P11182 | -0.133 ± 0.046
Lipoamide acyltransferase component of branched-chain alpha-keto acid dehydrogenase complex, mitochondrial A176R, P11182 | -0.143 ± 0.036
Lipoamide acyltransferase component of branched-chain alpha-keto acid dehydrogenase complex, mitochondrial V177E, P11182 | -0.385 ± 0.049
Lipoamide acyltransferase component of branched-chain alpha-keto acid dehydrogenase complex, mitochondrial E210I, P11182 | -0.239 ± 0.055
Lipoamide acyltransferase component of branched-chain alpha-keto acid dehydrogenase complex, mitochondrial E210N, P11182 | -0.061 ± 0.08
Lipoamide acyltransferase component of branched-chain alpha-keto acid dehydrogenase complex, mitochondrial V177I, P11182 | -0.139 ± 0.058
Lipoamide acyltransferase component of branched-chain alpha-keto acid dehydrogenase complex, mitochondrial G214C, P11182 | -0.066 ± 0.057
Lipoamide acyltransferase component of branched-chain alpha-keto acid dehydrogenase complex, mitochondrial D197H, P11182 | 0.025 ± 0.11
Lipoamide acyltransferase component of branched-chain alpha-keto acid dehydrogenase complex, mitochondrial V192E, P11182 | 0.023 ± 0.045
